Assay: soluble on expression in E. coli; label from the status in PepcDB or PDB records

| Sequence | soluble on expression in E. coli |
| --- | --- |
| RTDNLGLAPYGRVDLSGGSFGTFRRSVKLGSGRIGRHWAVDARLSKIGSDGYVDRGSVDLKSYFAQVGYFGSNTALRFITFGGKEVTGIAWNGLSKEDEAKYGRRYNSAGLMYVDAQGVPHYYHNTDNYEQRHYHAIMTHSFSPSVILNLTAHYTAGYGYTDEYRTGRKLKEYALQPYVENSVTVKKTDLIRQKYLDNDFGGLIGSLNWHTGAWDLQFGASGNIYKGDHFGRITYIKKYNQPLAPDFEYYRNRADKREGAAFAKANWQITPELNMYADLQYRTIGYTINGITDEYDEVQGSMQHIDLDKTFRFLNPKAGLTYSFDDAHTAYASVAVAHREPNRTNYTEAGIGQYPTPERLIDYELGYRYASPLLSAGVGLYYMQYKDQLVLDGRLSDVGQMLTSNVPDSYRMGLELTLGWQILPRLLRWDASFTMSRNKIDRYVQYTSVYDADYNWLELKEETLESTDIAYSPNVIAGSMLTLSHAGFEMAWTSRFVSKQYLDNTQRSDRMLSSYWVNDLRLGYVLPVHFVKRVALGVQLNNLFNLMYASNAYIYDAGYVQASGELSAYADLRYYPQAGFNALGSLTIDF | not soluble |
| MGSDKIHHHHHHMIYCDHCVMPNTRPGINFTKDKEGKNICSACINHKNKENIDYKARFKELEVLCDKYRRMNGKFEYDCAIAVSGGKDSHFQVHIMKEKLGMNPILFSVEDNFTMTEAGKKNLKNLSETFGCHIISLKPDIKTQKKVMLKTFEKYGKPTWFIDRLIYSYPFAMALKFNTPLLVYGENVSYEYGGSDTEETPSAKEIFLNGVASDLNINEFIDDEIKEENLQLFFNPNKDKLDKLNPIYLSYFVKWNSYSNYIFAKSRGFTDLEGEWDRTMCAENFDQVDSIGYILHAWMKYPKFGHACASDYAARFVRYGLLSRKEAIELVQKRDHKLDNKCVEDFCNFIGISKTTFWKIVEKHYNMDLFYKNDFGEFKLKNKLQ | not soluble |
| MAHHHHHHMDDGTRIPEDVEVFLRAARAKDTFKCAELLKETPSLINSVEAGGFSALHFAAFNGDLEMIRILLEFKPNLELRNYDNNTPLIMAAKGHQNSAIKLLVDAGAEVNLRTPTGGTAAHFAASMGYVDTVRCLVELGADVMHEDSETGTLLHWAAHSGDINCIGEMIYGFKIPINVKDAHGGTALFTALFMKKFEAVEFLLEHGADPRVMIEGDKSTPLHIAVEHANTECVKLLLVFGADPHVANTSGETPTSLAEKAKNNSALRELMKPMLSEEKRKEEAARFKTQGNKVFEGGENVKAAKFYTLAIHLDSTNHVFFSNRAAAYFNQRYYNGAYWDSLRCISLAPDWPKGYFRKAATELAMKKADEALQTCERGLRLDPKNKDLLTIKEEARRQRNK | soluble |
| MGSDKIHHHHHHMAQDIRVFKSKRDIETAVIQLILEEDFSKLTIQQICQKALVSRSTFYSHYLDKYDVVEQLVAKTITQLETIFSQKYQSQVSPENLKDYLADIYQFYQENARLLKALLKTPLTGTGNFEEAFSKLCQTYINHLAATTKDNDHLPPQLLAEIFTANVVTLMKWIIEHGPSENVTHFADWLHDLFLQYLQE | not soluble |
| GLIVDTRDVEERVHVMRKTKLAPTVAHGVFNPEFGPAALSNKDPRLNEGVVLDEVIFSKHKGDTKMSAEDKALFRRCAADYASRLHSVLGTANAPLSIYEAIKGVDGLDAMEPDTAPGLPWALQGKRRGALIDFENGTVGPEVEAALKLMEKREYKFACQTFLKDEIRPMEKVRAGKTRIVDVLPVEHILYTRMMIGRFCAQMHSNNGPQIGSAVGCNPDVDWQRFGTHFAQYRNVWDVDYSAFDANHCSDAMNIMFEEVFRTEFGFHPNAEWILKTLVNTEHAYENKRITVEGGMPSGCSATSIINTILNNIYVLYALRRHYEGVELDTYTMISYGDDIVVASDYDLDFEALKPHFKSLGQTITPADKSDKGFVLGHSITDVTFLKRHFHMDYGTGFYKPVMASKTLEAILSFARRGTIQEKLISVAGLAVHSGPDEYRRLFEPFQGLFEIPSYRSLYLRWVNAVCGDAAALE | soluble |
| MKVIKGLTAGLIFLFLCACGGQQIKDPLNYEVEPFTFQNQDGKNVSLESLKGEVWLADFIFTNCETICPPMTAHMTDLQKKLKAGNIDVRIISFSVDPENDKPKQLKKFAANYPLSFDNWDFLTGYSQSEIEEFALKSFKAIVKKPEGEDQVIHQSSFYLVGPDGKVLKDYNGVENTPYDDIISDVKSASTLK | soluble |
| MGSDKIHHHHHHMVDNPGNLNSFRALALQVTCHAVNQASDRQEAGLMMHNTINRLAQQIAASIAFIGFDCRLIVLPEYFLTGFPMGEPLQVWADKACLEINGAEYEALGMIAQKQQIFLAGNAYELDPNFPGLYFQTCFVIDPSGSVVLRYRRLNSLFAPTPHDVWDKYLDCYGLEGVFPVAKTAIGNLAALASEEILYPEVARCLAMRGAEIFLHSTSEVYSKNLTPKDAAKITRAVENMAYVVSANSAGLANSAIPIGSVDGGSKIIDHRGIILAETGPGESMAAFAEIDLAALRRDRTRPGLNNLLSRQRFEMYAQSYSQAKFYPANTMLNKEIERKHFIQTQQETIERLTRLGII | not soluble |
| MSIILYTANDGTAQFALQEFGGQLWLTQADMAELYQTTKQNISKHIKTILAEQELEEKATVNFQLTVQNENGRKVNRKIAHYSLPMIIAVGYRVRSARGIQFRQWATERLDEYLTKGFAIDDERLKGTGGGDYWKELLNRIRDIRSSEKALYRQVLDLYATSQDYNPKSSESQTFFAAVQNKLHYAASRQTAAELIYSRADSSKDFMGLTTFQGAIPTLNEAKIAKNYLTEDELFRLNRLVSAFFDLAEIKAQEQSPMYMRDWIAELDKFSGLYGQGTLQGAGSISRKQAEQKAEREYRAYEARILSPVEQAYLESVKALEKTAVQQIKQKKDRTK | not soluble |
| MGSDKIHHHHHHMTAAESIYALYPYIQHAQLLAHNEKIKQDNVIFTYTVSLSYDEISLRVLHVDSDNTKHIHIQVLFEINQGKIYVKDLYHNSGAAFELLTSIKSNPSLHQASFAQNSVPASWLSRDILNSLAIADRIAQKAINQYAGDDYRPGYYSQIECSGTQLILSQINHMNSRSLSHKENYSLRNLTFTIPLNGKADSEMLYNTDRIGIMNINFSDHSSANNRSAGDAVKNQIAEEIRLYQNDVE | not soluble |
| MSLQRVQIMGAGALGSLVGALIQLAGYDVIFVARGKQLEALKKGLRVSGLKNAELKVYCTSQPEDADITFVTVKAYDTETVAKKLAEVDAGVVCSLQNGVGNEEILAKYCRKVLGGVTTYGANLKDYGHVVYAGEGYTYVGEMDGRVSGEAEMVAEVLRDAGMRAEAVNDIEFRIWAKAVVNAAINPITAICRVKNGEVVRNPHLWEVARAVADEGRQVMARMGYEFDAASEVRKVAEMTAENRSSMLQDLERGKRTEVEFINGAIVKKGEEFGIDCAVNRTLLNLVRGVESGEGHHHHHH | soluble |
| MKIYSQGDQAIVVSIEKNVSQRLTEDLLSLRAYLIDKSYPFITEIVATESDLMICYDARDMIKHHHIQSPFLYMKALIDSIKLEIRHHRQQLQAKYIQKQQSVNIPVIYGGEFGPDLQHLLKHLKLKLEDFVKLHTQEKYFVSMMGYSPGFPYLTGMNKKLHVNHTSEKKKFIPCGSVIMEGKKCGIVTTDTYNDWLVIGYTPVQLFFPEQQNFTLLKLGDNVTFESKDINEIELGDYKTCQSLEHHHHHH | not soluble |
| MKHSVNAMAGGHGAARYNSTDLPKLPAPQPIKTLKHFLDFAQALQSKKEFQETKQIVNDFVVKDLPKLQELLQKRADALPNWLTPWWLNIAYLAARTPLPVVTSPGVMFPKFDYNTEEGQLEYAAKISQAAVHFYLRAKNNQLKPDMAGKSPLDMSQYQFLFGTTRVPKVGVDEIRYGCDYKEKLQHILVIRNGHLFRVQVLDSNEQPLSIFAITQQLAKVVSESQTPNPHPVGIVSSDSRDKWANVYSSLKKDNNNAKSLEAVEKSLFVVCLDKASEPPVGYTEKDEQSRQALHGGGSKVNSSNRWFDKTIQFVIGTNGYTGMTYEHTPAEGPPVGALMDFICDQFDANTFITEGTPSNSPVQRLDISTDEEINKRIAKSSKNMDSIAEDLDIVAFTFKPYGKNFPKSSKISPDSFIQMAYQLAFYRIHSSLPPTYETATLRKFTEGRTENIRSPNTAAASFVKKMVSKPPTPVSEIYDALVHATNSHKKYTMDCMDAAGMDRHLLAWKLIATENNLPTPEIFGSNIYQQLNHFQVSTSQVPTRHFIQMCFGPSALDCYGICYNPQETELHFMISTFKSYGSTSSKKFAKELQKALIDMKSVINKATKEMSKL | not soluble |
| MTTAIQYQVIPLADREHSNKVASILENKYKTATNKRITLNERFGVLEKGYTIQATEPETVKNDSDVFFVVHDRNLNSKKEFVENYLAKNPIVNSPEKVFEEEDKENAPTKKAVLKPSSTDEKKLTSSDIYIQEITRSILQSV | not soluble |
| MSLKLTSYTKTMQGRRKKQEDRYLVITDLTKYIDSNDYKTLYFYKKNPLYFYSIFDGHRGIKACEYCMSHIIKNIIYYFYNQGSAGAGTDEQIMEYIKLAFLKTDEQFLKVSKFPNHGCTIISLIIFRNKMFVANLGDCRAIGVVNISNTLKTEVLSNDHKPNDPKEKERIKKMGGDVICLQNVYRVKANARKNNKDKPSLLERLSMKEEVYLAVSRAIGDKDFKFNNVISATPDVICKEDNLYYSAHEVNYHYVVMACDGVWDTMSNKDIVKILQTYNNDPDKACSEIIKTAYAYGSQVHEGHHHHHH | not soluble |
| MSEPLLRGLAAGDPPSATGPVTGSADKVADVLIVGGGLVGGTLACALAEKGVSVVVIDGEDPEALLAAGYDGRCSAIALACQRLLDTIGLWDLLGGESQPILDIRVVDGGSPLFLHYAQAEAQGPMGYMVENRLLRQAILTRLGRLPAATLLAPARMTALRRDLDGVSATLSDGQTVRARLVVGADGRRSQVRESAGIGIRTLGYGQTAIVLTVEHERSHRGCAVEHFLPAGPFAILPMPGNRSSLVWTERSDLVPGLLALPAEHFQAELERRFGDHLGWVRPVGPRFSYRLTLQAANRYVDHRLALVGDAAHGMHPVAGQGMNYGLRDVAVLAERLVAAQRLGLDPGAPALLAEYEALRRPDNLLMLAITDALVRLFSNDIAPVALARRLGIGAVERMGPLKRLFMRHAMGTLKLGPEPPRLMRGVPLLEHHHHHH | soluble |
| MESPIELAPDYYLENFFKLTHHAVTWYSDLLTEEEHAWLCSFDSLNKHAQCLLVRLYSRKGCWFRSDKLNYQEIPLIDAALAELGGQDFISLSPPLSHQEVAANLLTKPEISALYPELPKSLKKDALVERLSNTEFDRVEQLEFTIVRLNSAHMIDVLLTLFFANTHQDLSQFVLDDLGLHQFEQYQLSKVRRFFNSREQIDRLIELSQLANLYWQFDRKDKANLDLLIEAMPHPVHHPYVDRKREHMLNDIARDYERIDELETALSLFGQTQLTPSRERRARIYDKLNHDDLFSDIVTEMLHSPIDVSELEVAQKLEQRLKRKQGEKVPRVTKPTCMEYRVELDLSQQRVELASKAHFESLGWSVFYAENALLNALLGLTFWDAIFAPIEGAFINAYQHRPLDLYHSDFVAKRQALIDEAFAQLKLGNTQAILTKYDEKFGISNPFVQWSLIGKELLEQSLNTIPTRTLLELFKVQLSDLKLYRNGMPDLIAFRDNEFEWIEVKGPGDKLQDNQWRWIKEFSRLNVPFAVCYVTARKEDEKRVD | not soluble |
| SDHFNAPVGMLEAITSVEGVDRVVPTIEMTGVAKTDSAFAGILLMGDNSLRTRNPLFGQTVSGNYPSFSSADTVPNPILLPQVTADKLHLKIGDKLRIYFAGTERMRLRAFTVAGVYSGGKMDMPVGLVSADVLRRVGGLGADDVSRLLIYASDPDETDLIVTRVFDRLSETLYVGEQRLTINTATELNPMIMDWLSALDTN | not soluble |
| MGSSHHHHHHSSGRENLYFQGMIYQPDENRYHTMEYRRCGRSGVKLPAISLGLWHNFGDTTRVENSRALLQRAFDLGITHFDLANNYGPPPGSAECNFGRILQEDFLPWRDELIISTKAGYTMWDGPYGDWGSRKYLIASLDQSLKRMGLEYVDIFYHHRPDPETPLKETMKALDHLVRHGKALYVGISNYPADLARQAIDILEDLGTPCLIHQPKYSLFERWVEDGLLALLQEKGVGSIAFSPLAGGQLTDRYLNGIPEDSRAASGSRFLKPEQITADKLEKVRRLNELAARRGQKLSQMALAWVLRNDNVTSVLIGASKPSQIEDAVGMLANRRFSAAECAEIDAILEGRF | soluble |

Source: the DeepSol protein solubility set
